Consider one molecule from patent US20240279288A1 (ANYANG INSTITUTE OF SINO COTTON INDUSTRY INNOVATION, published 2024).

For one assay, the target named is GhMYC2 (cotton). As to the kind of experiment: luciferase complementation in tobacco leaves (FIG. 5B). How it is done: The constructed plasmids were then transformed into Agrobacterium GV3101 (pSoup-p19) (Shanghai Weidi Company, Cat. No.: AC1003), and placed successively on ice for 5 min, in liquid nitrogen for 5 min, in water bath at 37° C. for 5 min, and on ice for 5 min, and then LB liquid medium was added for cultivation at 28° C. and 220 rpm for 2-3 h, followed by plating onto LB solid plates containing corresponding antibiotics (kanamycin+rifampicin) for cultivation at 28° C. for 2-3 days. Positive monoclonal clones were picked for cultivation after colonies grown out. The corresponding NLUC and CLUC vectors then were mixed and injected into tobacco leaves (1 day in the dark/1 day in the light). Luciferase substrates were applied at the infected leaves before taking images and placed in a dark room for at least 6 min to quench fluorescence, followed by observation on the Nightowl-II LB983 instrument, using IndigoBasic software under the luciferase-5 min setting conditions.
GhMYC2 (cotton), sequence (chain, as listed by the source limits assumed): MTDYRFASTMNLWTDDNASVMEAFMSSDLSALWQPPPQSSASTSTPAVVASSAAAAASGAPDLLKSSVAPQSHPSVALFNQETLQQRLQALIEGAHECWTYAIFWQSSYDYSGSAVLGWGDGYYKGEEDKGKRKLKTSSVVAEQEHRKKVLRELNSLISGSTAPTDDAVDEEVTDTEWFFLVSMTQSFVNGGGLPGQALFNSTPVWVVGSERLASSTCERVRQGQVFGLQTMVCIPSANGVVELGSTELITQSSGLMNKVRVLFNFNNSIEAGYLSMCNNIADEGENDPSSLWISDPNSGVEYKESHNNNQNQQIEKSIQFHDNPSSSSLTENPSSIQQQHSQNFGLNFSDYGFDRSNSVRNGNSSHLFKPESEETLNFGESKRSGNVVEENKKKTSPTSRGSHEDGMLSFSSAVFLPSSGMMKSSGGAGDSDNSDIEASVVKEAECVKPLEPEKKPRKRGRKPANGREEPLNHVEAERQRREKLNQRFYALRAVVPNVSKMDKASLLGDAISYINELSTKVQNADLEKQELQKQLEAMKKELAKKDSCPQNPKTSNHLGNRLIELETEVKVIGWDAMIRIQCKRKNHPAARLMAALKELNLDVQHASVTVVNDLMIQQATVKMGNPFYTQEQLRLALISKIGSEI

The target in another assay is T1, c-Myc-215aa (human, UniProt P01106 1-215).
T1 construct: Also tested by LUC, for which the construct is not described
T1 sequence (P01106 1-215 limits assumed): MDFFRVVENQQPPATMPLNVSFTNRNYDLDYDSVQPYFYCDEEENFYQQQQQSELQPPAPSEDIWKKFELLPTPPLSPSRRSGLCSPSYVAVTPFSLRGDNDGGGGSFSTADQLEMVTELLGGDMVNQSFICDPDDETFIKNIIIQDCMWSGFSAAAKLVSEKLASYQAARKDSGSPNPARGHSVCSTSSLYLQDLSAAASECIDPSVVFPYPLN
Briefly: luciferase complementation (FIG. 13 E).

A further assay deals with T2, c-Myc-150aa (human, UniProt P01106 1-150).
T2 construct: Also tested by LUC, for which the construct is not described; also called first 150 amino acids truncated c-Myc
T2 sequence (P01106 1-150 limits assumed): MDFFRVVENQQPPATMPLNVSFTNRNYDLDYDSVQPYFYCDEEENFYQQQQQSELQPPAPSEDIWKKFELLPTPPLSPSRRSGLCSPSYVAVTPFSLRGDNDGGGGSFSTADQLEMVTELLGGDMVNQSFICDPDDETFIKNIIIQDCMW
Briefly: luciferase complementation (FIG. 13 E).

The next assay addresses T3, c-Myc (human, UniProt P01106 1-454, limits assumed).
T3 construct: In pGADT7 (AD fusion) for yeast two hybrid, pCAMBIA-NLuc for LUC, pUC-SPYCE for BiFC; also called proto-oncogene c-Myc; full length of c-Myc
As to the kind of experiment: luciferase complementation in tobacco leaves (FIG. 6F). An excerpt:
Using the method of LUC experiment, c-Myc (NCBI accession number: NM_002467.6) was subcloned to pCAMBIA NLuc vector (Chen, H., et al. “Firefly Luciferase Complementation Imaging Assay for Protein-Protein Interactions in Plants.” Plant Physiology 146.2(2008):368-376.) between the KpnI and SalI cleavage sites, and GhJAZ1 (SEQ ID No. 39) was subcloned to pCAMBIA-CLuc vector (Chen, H., et al. “Firefly Luciferase Complementation Imaging Assay for Protein-Protein Interactions in Plants.” Plant Physiology 146.2(2008):368-376.) between the KpnI and SalI cleavage sites. The constructed recombinant plasmids verified to be positive by sequencing were transformed into Agrobacterium GV3101 (pSoup-p19) (Shanghai Weidi biology technology co., Ltd, Cat. No.: AC1003), which were co-transfected into tobacco leaves. 2-3 days after injection, the infected leaves coated with the fluorescent substrate were placed in a dark chamber of the instrument for at least 6 min before taking images to quench fluorescence, followed by observation on the Nightowl-II LB983 instrument, using IndigoBasic software under the luciferase-5 min setting conditions. Cultivation was performed after co-infection. If there is interaction, LUC luciferase is expressed, and luminescence is detected after substrate application. As shown in F in FIG. 6, GhJAZ1 interacts with c-Myc.

The target in another assay is T4, GhCOI1 (cotton).
T4 chain: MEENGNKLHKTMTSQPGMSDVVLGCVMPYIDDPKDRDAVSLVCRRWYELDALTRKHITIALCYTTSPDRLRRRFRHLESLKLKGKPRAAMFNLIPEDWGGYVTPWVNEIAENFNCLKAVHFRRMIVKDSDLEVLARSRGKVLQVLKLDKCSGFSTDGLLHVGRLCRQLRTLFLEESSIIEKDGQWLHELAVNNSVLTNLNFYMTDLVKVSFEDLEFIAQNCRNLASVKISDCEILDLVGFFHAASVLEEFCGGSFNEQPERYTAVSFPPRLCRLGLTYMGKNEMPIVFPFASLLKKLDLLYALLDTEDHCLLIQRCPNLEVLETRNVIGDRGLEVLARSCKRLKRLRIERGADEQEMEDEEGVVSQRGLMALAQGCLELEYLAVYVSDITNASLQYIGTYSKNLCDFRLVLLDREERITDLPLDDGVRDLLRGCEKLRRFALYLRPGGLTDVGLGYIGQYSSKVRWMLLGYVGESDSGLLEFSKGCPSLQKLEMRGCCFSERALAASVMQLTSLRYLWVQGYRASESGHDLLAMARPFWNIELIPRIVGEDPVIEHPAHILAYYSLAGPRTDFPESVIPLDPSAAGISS
Briefly: yeast two hybrid, JA-Ile in the medium. The procedure: The study on Arabidopsis had shown that the inhibition of JAZ protein on JA signaling was mainly achieved by inhibiting the transcription factor function of MYC, which had been experimentally verified by us in cotton. Based on the phylogenetic tree of Arabidopsis and cotton JAZs, we screened 6 cotton JAZs (GhJAZ1, GhJAZ7, GhJAZ9, GhJAZ10, GhJAZ11 and GhJAZ31), which were analyzed with GhMYC2, GhNINJA, GhTPL, GhHDA6, and GhCOI1 for yeast two hybrid. The amino acid sequence of GhJAZ1 was set forth in SEQ ID No. 4, and the corresponding encoding gene sequence was set forth in SEQ ID No. 39; the amino acid sequence of GhJAZ7 was set forth in SEQ ID No. 7, and the corresponding encoding gene sequence was set forth in SEQ ID No. 42; the amino acid sequence of GhJAZ9 was set forth in SEQ ID No. 2, and the corresponding encoding gene sequence was set forth in SEQ ID No. 37; the amino acid sequence of GhJAZ10 was set forth in SEQ ID No. 3, and the corresponding encoding gene sequence was set forth in SEQ ID No. 38; the amino acid sequence of GhJAZ11 was set forth in SEQ ID No. 5, and the corresponding encoding gene sequence was set forth in SEQ ID No. 40; and the amino acid sequence of GhJAZ31 was set forth in SEQ ID No. 9, and the corresponding encoding gene sequence was set forth in SEQ ID No. 44. […]

In the next assay the target is T5, GhHDA6 (cotton).
T5 chain: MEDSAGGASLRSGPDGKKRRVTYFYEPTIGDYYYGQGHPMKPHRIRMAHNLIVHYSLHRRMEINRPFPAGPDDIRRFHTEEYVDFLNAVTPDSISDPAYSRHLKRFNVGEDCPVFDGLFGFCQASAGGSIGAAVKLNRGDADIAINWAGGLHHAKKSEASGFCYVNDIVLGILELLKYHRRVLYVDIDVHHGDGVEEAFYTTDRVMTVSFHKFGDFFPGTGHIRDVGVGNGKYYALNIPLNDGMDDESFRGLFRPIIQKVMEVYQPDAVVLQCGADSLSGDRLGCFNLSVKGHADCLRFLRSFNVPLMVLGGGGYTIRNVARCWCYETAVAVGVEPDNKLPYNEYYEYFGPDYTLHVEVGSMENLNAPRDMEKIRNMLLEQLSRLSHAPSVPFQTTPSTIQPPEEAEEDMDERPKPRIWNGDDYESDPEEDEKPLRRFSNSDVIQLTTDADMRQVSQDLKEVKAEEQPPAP
As to the kind of experiment: yeast two hybrid.

For another assay, the target named is T6, NMYC (human, UniProt P04198 1-464).
T6 construct: In pGADT7 (AD fusion) for yeast two hybrid
T6 sequence (looked up): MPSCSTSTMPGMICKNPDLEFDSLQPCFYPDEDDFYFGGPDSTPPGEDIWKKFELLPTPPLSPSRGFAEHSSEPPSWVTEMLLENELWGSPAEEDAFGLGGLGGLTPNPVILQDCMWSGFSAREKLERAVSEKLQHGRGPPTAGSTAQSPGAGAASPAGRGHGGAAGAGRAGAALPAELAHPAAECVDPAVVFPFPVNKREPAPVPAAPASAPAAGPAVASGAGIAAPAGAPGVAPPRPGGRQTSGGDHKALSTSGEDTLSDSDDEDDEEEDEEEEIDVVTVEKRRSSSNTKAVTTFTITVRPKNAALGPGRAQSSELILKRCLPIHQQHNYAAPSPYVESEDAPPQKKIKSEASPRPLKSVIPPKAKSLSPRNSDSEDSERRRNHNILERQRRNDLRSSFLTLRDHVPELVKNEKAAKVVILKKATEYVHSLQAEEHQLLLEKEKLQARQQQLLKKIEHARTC
Briefly: yeast two hybrid.

In the next assay the target is T7, uPAR-D1D2 (Homo sapiens (Human), UniProt Q03405 23-335, limits assumed).
T7 construct: It is tied to 'D3 domain deficient uPAR' by its name only; also called D3 domain deficient uPAR
T7 sequence (Q03405 other isoform, or with tags, fused parts or gaps limits assumed): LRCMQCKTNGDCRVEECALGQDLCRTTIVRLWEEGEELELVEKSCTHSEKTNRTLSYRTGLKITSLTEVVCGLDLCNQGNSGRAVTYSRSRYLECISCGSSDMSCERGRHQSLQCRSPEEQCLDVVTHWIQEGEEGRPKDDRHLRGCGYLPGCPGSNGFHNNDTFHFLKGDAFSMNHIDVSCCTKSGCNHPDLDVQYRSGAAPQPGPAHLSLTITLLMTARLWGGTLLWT
Briefly: yeast two hybrid.

The target of the next assay is T8, GhNINJA (cotton).
T8 chain: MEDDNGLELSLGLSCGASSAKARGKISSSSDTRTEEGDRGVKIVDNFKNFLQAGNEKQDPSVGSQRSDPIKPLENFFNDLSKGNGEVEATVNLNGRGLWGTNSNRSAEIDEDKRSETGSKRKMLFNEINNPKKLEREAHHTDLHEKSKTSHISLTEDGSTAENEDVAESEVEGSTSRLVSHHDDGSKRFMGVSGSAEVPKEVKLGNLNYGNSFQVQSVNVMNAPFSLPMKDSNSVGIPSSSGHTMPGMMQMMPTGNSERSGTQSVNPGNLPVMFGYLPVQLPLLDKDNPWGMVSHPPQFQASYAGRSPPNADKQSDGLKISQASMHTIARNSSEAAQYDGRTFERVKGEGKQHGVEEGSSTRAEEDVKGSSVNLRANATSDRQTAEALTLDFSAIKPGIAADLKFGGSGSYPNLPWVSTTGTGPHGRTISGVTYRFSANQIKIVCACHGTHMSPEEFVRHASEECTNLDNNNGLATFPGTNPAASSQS
As to the kind of experiment: yeast two hybrid.

For the next assay, the target named is T9, GhTPL (cotton).
T9 chain: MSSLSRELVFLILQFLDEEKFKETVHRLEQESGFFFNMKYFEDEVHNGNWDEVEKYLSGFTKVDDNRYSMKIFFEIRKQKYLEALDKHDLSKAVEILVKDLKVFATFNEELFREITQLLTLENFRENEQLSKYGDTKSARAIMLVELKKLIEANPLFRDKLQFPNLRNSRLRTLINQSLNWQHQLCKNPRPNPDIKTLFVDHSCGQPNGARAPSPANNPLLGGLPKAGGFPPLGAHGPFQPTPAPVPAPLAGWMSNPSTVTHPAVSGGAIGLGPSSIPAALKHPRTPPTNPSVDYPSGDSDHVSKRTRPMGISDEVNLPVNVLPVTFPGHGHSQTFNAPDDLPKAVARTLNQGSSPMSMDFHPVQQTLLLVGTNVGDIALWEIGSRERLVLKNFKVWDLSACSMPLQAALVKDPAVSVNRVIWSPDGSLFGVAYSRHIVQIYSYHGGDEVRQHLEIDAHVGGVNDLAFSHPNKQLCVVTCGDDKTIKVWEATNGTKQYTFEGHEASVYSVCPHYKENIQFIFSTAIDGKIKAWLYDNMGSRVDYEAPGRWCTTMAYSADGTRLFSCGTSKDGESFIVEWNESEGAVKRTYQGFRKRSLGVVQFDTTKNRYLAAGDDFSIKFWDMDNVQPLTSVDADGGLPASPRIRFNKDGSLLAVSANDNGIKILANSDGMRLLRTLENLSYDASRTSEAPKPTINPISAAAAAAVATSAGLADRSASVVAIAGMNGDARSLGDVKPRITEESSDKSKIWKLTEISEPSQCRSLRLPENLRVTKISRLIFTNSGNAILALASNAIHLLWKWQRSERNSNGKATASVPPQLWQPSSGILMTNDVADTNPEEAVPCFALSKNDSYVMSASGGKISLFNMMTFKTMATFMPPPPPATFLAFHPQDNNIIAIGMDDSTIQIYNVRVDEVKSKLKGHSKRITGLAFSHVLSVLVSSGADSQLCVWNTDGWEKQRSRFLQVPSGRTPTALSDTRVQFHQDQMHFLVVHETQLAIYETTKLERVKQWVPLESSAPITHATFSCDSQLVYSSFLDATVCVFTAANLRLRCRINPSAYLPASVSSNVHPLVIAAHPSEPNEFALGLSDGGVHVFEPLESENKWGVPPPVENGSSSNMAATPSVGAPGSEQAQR
Briefly: yeast two hybrid.

T3 sequence (P01106 whole entry, the tested form may be a part): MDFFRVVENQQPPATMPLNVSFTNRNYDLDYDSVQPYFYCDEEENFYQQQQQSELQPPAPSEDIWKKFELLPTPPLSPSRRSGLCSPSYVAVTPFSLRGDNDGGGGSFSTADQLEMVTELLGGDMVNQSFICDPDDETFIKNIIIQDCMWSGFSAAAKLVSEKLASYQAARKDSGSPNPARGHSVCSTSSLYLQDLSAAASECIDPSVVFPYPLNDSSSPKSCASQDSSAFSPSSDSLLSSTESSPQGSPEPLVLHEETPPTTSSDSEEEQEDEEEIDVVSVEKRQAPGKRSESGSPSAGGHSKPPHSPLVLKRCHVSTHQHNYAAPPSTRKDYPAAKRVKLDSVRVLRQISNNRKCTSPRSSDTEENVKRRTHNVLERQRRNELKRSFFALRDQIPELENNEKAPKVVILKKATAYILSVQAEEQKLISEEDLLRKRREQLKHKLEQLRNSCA

B1: GhJAZ1 (other)
chain: MSSCSESTAMKPARSPEKPSFAQTCNLLSQYLKEKGSFGDLSLGMTCNVEANGTPVVPPPTMNLFPLNDKSDDVCGRNGGNPKNLTSMDLFPQQAGLASKDDSPNKLEPQTAPMTIFYGGQVIVFNDFPANKAKEIMLLASNSSSQSNNSFNPIPFTSSIARSPIESSIGVPPTSKPVHPAQRAVPGDLPIARRASLHRFLEKRKDRITAKAPYQINNSAAAPSLSGDNKSWLGLAAQSP
notes: In yeast two hybrid it was expressed from pGBKT7 (BD fusion), in the luciferase experiment from pCAMBIA-CLuc, in BiFC from pUC-SPYNE; also called cotton JAZ1
For the molecule B1, the binding result with GhMYC2, in the assay with c-Myc-215aa, in the assay with c-Myc-150aa, in the assay with c-Myc, with GhCOI1 and with GhHDA6 was “binds” in each case. Further, the binding result was “binds” with NMYC, “no binding” with uPAR-D1D2, “binds” in the assay with GhNINJA and “binds” in the assay with GhTPL.
